Experiment [1] addresses T1, human CD123 SP1 ECD displayed on pDisplay-transfected cells (human, UniProt P26951 20-305).
T1 construct: ECD anchored on the surface of stably transfected HEK293 cells by the PDGFR transmembrane domain; also called hCD123 SP1 cells; hCD123 cells
T1 sequence: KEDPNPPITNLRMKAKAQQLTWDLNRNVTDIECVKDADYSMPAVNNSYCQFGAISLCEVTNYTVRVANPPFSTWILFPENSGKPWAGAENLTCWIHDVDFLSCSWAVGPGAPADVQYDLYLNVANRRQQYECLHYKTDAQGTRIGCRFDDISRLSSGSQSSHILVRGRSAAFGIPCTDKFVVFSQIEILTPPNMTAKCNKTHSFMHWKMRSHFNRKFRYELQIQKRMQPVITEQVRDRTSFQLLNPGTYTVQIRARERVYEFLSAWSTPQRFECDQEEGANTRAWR
Nature of the experiment: MSD-CAT, hCD123 cells, assay-1. As for the experimental part:
(§1) After equilibration the plate was centrifuged for 5 min ˜1000 rpm and free anti-CD3 detected on the supernatant. […] The assay buffer was removed without washing and 50 μL/well of 0.7 μg/mL of biotinylated antigen in assay buffer were added to MSD plates and incubated overnight (˜16 hr at 4° C.). After overnight incubation, the plates were blocked by adding 150 μL/well of assay buffer without removing coating antigen, incubated for ˜1 hr at ambient temperature and washed 5 times with wash buffer (assay buffer without BSA). 50 μL/well of the supernantants from samples plate were transferred to antigen-coated plates, incubated for 60 min, and then washed three times with wash Buffer. After this 50 μL per well of ruthenium labeled detection antibody(anti-human H+L) were added and incubated for 1 hr. After 1 hr the plates were washed and 150 μL of MSD Read Buffer (prepared by diluting 1:4 of stock into d. H₂O) were added per well. The plates were read immediately on the MSD Sector Imager 6000 Reader for luminescence levels. ECL signal detected by MSD was expressed in term of % free antibody in the mixture and the data was analyzed to determine affinity using a user defined equation (derived from the law of mass action) introduced in Prism software.

The target in experiment [2] is T1, human CD123 SP1 ECD displayed on …. Put plainly: MSD-CAT, hCD123 cells, assay-1, fit with parameter Bo constrained. As for the experimental part:
as §1

The target in experiment [3] is T2, cyno CD123 ECD displayed on pDisplay-transfected cells (cynomolgus monkey).
T2 construct: ECD anchored on the surface of stably transfected HEK293 cells; also called cynoCD123 SP1 cells; cynoCD123 cells
T2 chain: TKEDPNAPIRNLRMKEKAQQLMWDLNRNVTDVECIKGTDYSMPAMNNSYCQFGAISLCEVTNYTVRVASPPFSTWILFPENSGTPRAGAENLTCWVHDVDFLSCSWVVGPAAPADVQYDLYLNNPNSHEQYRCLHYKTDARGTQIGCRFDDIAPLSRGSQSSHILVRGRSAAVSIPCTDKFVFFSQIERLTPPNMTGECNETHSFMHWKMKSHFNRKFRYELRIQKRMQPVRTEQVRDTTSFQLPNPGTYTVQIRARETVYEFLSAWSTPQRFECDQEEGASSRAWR
Nature of the experiment: MSD-CAT, cynoCD123 cells, assay-2. The protocol:
(§2) The MSD-CAT was developed in-house as a label-free method to determine affinity using intact cells in a high throughput format. […] Cell lines used were human pDisplay CD and cyno pDisplay CD123SP1. […] These samples were prepared in DMEM Glutamax medium containing 0.05% Azide, 1% BSA, 3 mM EDTA. The receptor numbers of (3.15-4.18)×10⁶ hCD123/cell and (4.78-9.24) 10⁶ cyCD123/cell were converted to M receptor concentration in the mixture on the basis of the volume of reaction, the cell density (cells/L) and the Avogadro's number. […] After equilibration the plate was centrifuged for 5 min ˜1000 rpm and free anti-CD3 detected on the supernatant.

Experiment [4] has as its target T3, Recombinant human CD123 SP1 ECD-His tag protein (human, UniProt P26951 20-305).
T3 construct: bought from R&D Systems (#301-R3/CF); biotinylated for some assays; also called rhCD123 SP1; huCD123 ECD SP1
T3 sequence: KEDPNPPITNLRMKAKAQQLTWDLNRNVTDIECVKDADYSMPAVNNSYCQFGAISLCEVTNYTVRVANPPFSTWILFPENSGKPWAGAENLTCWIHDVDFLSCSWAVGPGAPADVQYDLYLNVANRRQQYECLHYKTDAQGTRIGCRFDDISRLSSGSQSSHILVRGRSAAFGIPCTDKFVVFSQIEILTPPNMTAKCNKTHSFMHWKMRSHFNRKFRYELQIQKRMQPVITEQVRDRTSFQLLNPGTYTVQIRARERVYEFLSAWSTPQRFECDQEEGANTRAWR
Nature of the experiment: SPR Biacore 3000, captured Fab. The protocol: (§3) Kinetic studies were performed at 25° C. using a Biacore 3000 (BIAcore, Inc., now part of GE Healthcare). […] Sheep anti-Human Fd specific antibody (The binding site Prod # PC075) was covalently attached to two flow cells (normally 3 and 4) of the carboxymethyl dextran coated gold surfaces (CM-5 Chip, Biacore). The carboxymethyl groups of dextran were activated with N-Ethyl-N′-(3-Dimethylaminopropyl)carbodiimide (EDC) and N-hydroxysuccinimide (NHS). The antibodies were coupled at pH 4.5 in 10 mM sodium acetate. Any remaining reactive sites on the surface were blocked by reaction with ethanolamine. […] Association data was collected for 2 min followed by 10 min of dissociation. The surface was regenerated with 30 μL of 100 mM H3PO4 100 μL/min. All samples were prepared in D-PBS containing 3 mM EDTA and 0.005% surfactant P20. Data reported is the difference in SPR signal between the flow cell containing the captured antibody or Fab and a reference cell without captured antibody or Fab. Additional instrumental contributions to the signal were removed by subtraction of the data from the blank injection from the reference-subtracted signal. Data were performed in triplicate and analyzed by fitting association and dissociation phases at all concentrations (global fit) with a 1:1 binding model using the BIAevaluation software (BIAcore, Inc.). […] Data presented is an average.
(Surface plasmon resonance follows binding to a sensor surface in real time, without labels.)

For experiment [5], the target named is T4, Recombinant human CD123 SP2 ECD protein (human, UniProt P26951 101-303).
T4 construct: also called rhCD123 SP2; CD123 ECD SP2
T4 sequence: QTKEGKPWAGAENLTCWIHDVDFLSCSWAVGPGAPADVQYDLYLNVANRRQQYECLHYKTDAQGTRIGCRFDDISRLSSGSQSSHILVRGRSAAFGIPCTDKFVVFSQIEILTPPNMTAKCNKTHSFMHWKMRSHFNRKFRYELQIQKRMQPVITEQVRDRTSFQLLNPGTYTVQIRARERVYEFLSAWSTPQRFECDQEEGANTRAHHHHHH
Put plainly: SPR Biacore 3000, captured Fab. The protocol:
as §3

The target of experiment [6] is T1, human CD123 SP1 ECD displayed on …. Put plainly: MSD-CAT, hCD123 cells, assay-2, fit with parameter Bo constrained. As for the experimental part: as §1
In experiment [7] the target is T2, cyno CD123 ECD displayed on …. Put plainly: MSD-CAT, cynoCD123 cells, assay-1. The protocol:
as §2

Experiment [8] deals with T1, human CD123 SP1 ECD displayed on …. Nature of the experiment: MSD-CAT, hCD123 cells, assay-2. The protocol:
as §1

Experiment [9] has as its target T2, cyno CD123 ECD displayed on …. Nature of the experiment: MSD-CAT on pDisplay cells. The protocol:
as §1

The target of experiment [10] is T5, sp2 isoform of human CD123 ECD with C-terminal 8xHis tag (crystallography) (human, UniProt P26951 101-303).
T5 construct: expressed in baculovirus-infected insect cells; also called CD123 sp2; CD123 SP2 ECD
T5 sequence: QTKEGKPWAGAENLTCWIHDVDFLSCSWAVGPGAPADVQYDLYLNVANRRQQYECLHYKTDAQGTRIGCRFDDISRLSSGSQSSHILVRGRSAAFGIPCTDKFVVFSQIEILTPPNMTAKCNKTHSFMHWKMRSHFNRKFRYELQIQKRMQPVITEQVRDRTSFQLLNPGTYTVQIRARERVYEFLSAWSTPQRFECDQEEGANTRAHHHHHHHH
Put plainly: size-exclusion chromatography of the mixed proteins. The protocol:
The protein was concentrated to 18 mg/mL in 20 mM HEPES, pH 7.5, 100 mM NaCl.

Consider two molecules from patent US20160068605A1 (Janssen / Centocor, published 2016).

Broadly, the Kd is the equilibrium constant for the complex coming apart. The koff is the rate constant with which the complex falls apart. One may read the kon as the second-order rate constant of association.

B1: I3RB120 (Fab, V domains shown)
VH: EVQLLESGGGLVQPGGSLRLSCAASGFTFSGYWMHWVRQAPGKGLEWVSAIRSDGSSKYYADSVKGRFTISRDNSKNTLYLQMNSLRAEDTAVYYCAKDGVIEDTFDYWGQGTLVTVSS
VL: EIVLTQSPATLSLSPGERATLSCRASQSVSSYLAWYQQKPGQAPRLLIYDASNRATGIPARFSGSGSGTDFTLTISSLEPEDFAVYYCQQRSNWPLTFGQGTKVEIK
notes: also called Fab I3RB120; I3RB2 Fab
In the case of B1, the Kd in experiment [1] was roughly 0.00337 nM; in [2], 344 nM; in [3] it was greater than 11.9 nM; in [4] it was 8.5 nM; in experiment [5] it was 1.4 nM; in experiment [6] it was 3.81 nM. Besides, the Kd in experiment [7] is 2.4 nM; in experiment [8] it was roughly 3.84 nM. For the same molecule, the koff in experiment [4] stood at 0.00304 s⁻¹. Moreover, in experiment [4], the kon was determined as 357000 M⁻¹ s⁻¹. The “fold difference of affinity against human CD123 SP1” value in [9] is less than 5 fold.

B2: single-chain Fv fragment of anti-CD123 mAb I3RB18 (scFv)
scFv: EIVLTQSPGTLSLSPGERATLSCRASQSVSSSYLAWYQQKPGQAPRLLIYGASSRATGIPDRFSGSGSGTDFTLTISRLEPEDFAVYYCQQDYGFPWTFGQGTKVEIKGGGGSGGGGSGGGGSGGGGSEVQLVQSGAEVKKPGESLKISCKGSGYSFTSYWISWVRQMPGKGLEWMGIIDPSDSDTRYSPSFQGQVTISADKSISTAYLQWSSLKASDTAMYYCARGDGSTDLDYWGQGTLVTVSSGHHHHHH
notes: form VL-(Gly4Ser)4-VH-Gly-His6, expressed in HEK293 Expi cells; also called I3RB18 scFv; I3RB18 derived scFv
In the case of B2, in experiment [10], the binding result is given as “binds”.
